Assay results as given in patent US20090074795A1, “Methods for addressing ocular diseases through interference with the wnt signaling pathway” (priority 2007, published 2009).

Assays:
Type in all cases: in vivo, rat
OIR rats [1] = assay: Retinal VEGF (western blot) after intravitreal DKK1 in OIR rats; conditions: 3 μg/eye intravitreal at P15, retinas at P18, western blot, vs BSA
Method: To determine the effect of the wnt pathway blockade of the VEGF expression induced by ischemia, DKK1 was injected into the vitreous of the OIR rats at P15. The rats were then maintained in normoxia for 3 days, and the VEGF expression in the retina was measured.
The same amount of BSA was injected as control. The same amount of total protein from each rat was used for western blot analysis using specific antibody for VEGF. Each lane represents an individual rat.
(§1) Intravitreal injection: All solutions will be sterilized by filtration and assessed for endotoxin. Animals will be anesthetized, and compounds will be injected into the vitreous of the one eye through the pars plana using a Hamilton syringe. The left eye will receive the same volume of vehicle and will be used as the control. Following injection, the animals will receive equal amounts of topical antibiotic ointment on both eyes. The animals will then be kept in normoxic conditions until the necessary time point for evaluation

OIR rats [2] = assay: Pre-retinal NV and HIF-1α in retinal sections of OIR rats
Method: Because pre-retinal NV (vasculature growing into the vitreous space) is a characteristic change of diabetic retinopathy, the effect of DKK1 was evaluated on pre-retinal NV. DKK1 was injected into the right vitreous of the OIR rats and BSA into the left vitreous at P15. At P18, pre-retinal NV was examined in retinal sections. […] Furthermore, the nuclear translocation and expression levels of HIF-1α, a key transcription factor activating VEGF expression, were decreased in the retina of the DKK1-injected eye, compared to the eye treated with BSA.
According to embodiments of experimental data and as shown in FIGS. 20A-20C, Brown Norway (BN) rats were exposed to hyperoxia for 5 days (P7-P12). At age of P15, the rats received a single injection of 3 μg of DKK1 into the vitreous of the right eyes and BSA into the left eyes. The eyes were sectioned at P18. Representative retinal sections from normal control rats (FIG. 20A), eyes of OIR rats injected with BSA (FIG. 20B), and OIR retina injected with DKK1 (FIG. 20C) were triple stained with three antibodies: Retinal vascular EC was stained with an antibody against CD31 (Red); the retinal ischemia stress status was detected by an antibody against GFAP (Blue), and the levels and nuclear translocation of HIF-1α were determined by an antibody against HIF-1α (Green).

STZ-diabetic BN rats = assay: Retinal vascular permeability in STZ-induced diabetic rats; conditions: STZ-diabetic BN rats 16 weeks, 3 μg/eye intravitreal, 48 h, vs BSA contralateral eye, P<0.05
Method: To investigate if blockade of the wnt pathway reduces the retinal vascular hyper-permeability in diabetes, 3 μg purified DKK1 was intravitreally injected into the right eyes of STZ-diabetic BN rats at 16 weeks following the STZ injection, and the same amount of BSA into the contralateral eyes as control. The vascular permeability was measured at 48 h following the DKK1 injection.
The retinal vascular permeability was measured using Evans blue as a tracer, 48 hr after the injection. Vascular permeability was expressed as % of the permeability in the contralateral control (mean±SD, n=4), P<0.05.
Measurement of vascular permeability: Vascular permeability will be quantified by measuring FITC-BSA leakage from blood vessels into the retina following a method with modifications. The mice anesthetized and FITC-BSA (10 mg/kg body weight) is injected through the femoral vein under microscopic inspection. […] The fluoresce density of fluorescein-albumin from supernatant and serum is measured at excitation wave 485 nm/emission wave 530 nm. Retinal protein levels are measured in the pellet by Bradford assays with quantification at […]. The FITC-BSA levels in the retina are then calculated by the supernatant fluoresce density and normalized to retinal protein levels and normalized to serum FITC levels.

STZ-diabetic rats = assay: Retinal ICAM-1 (sICAM-1 ELISA) after intravitreal DKK1 in STZ-diabetic rats; conditions: different doses intravitreal, STZ-diabetic rats 16 weeks after onset, 2 days after injection, vs BSA
Method: To determine the role of wnt pathway in retinal inflammation in diabetic retinopathy, different doses of purified DKK1, a specific inhibitor of the wnt pathway, was injected into the vitreous of the right eye of STZ-diabetic rats. As shown by ELISA, diabetes induced over-expression of ICAM-1 in the retina.
According to embodiments of experimental data shown in FIG. 13, different doses of purified DKK1 were injected intravitrealy into the right eye of STZ-diabetic rats at 16 weeks following the onset of diabetes, and the same amounts of BSA into the left eye for control. Soluble ICAM-1 was measured at 2 days after the injection using the sICAM-1 ELISA kit, normalized by total protein concentrations and expressed as ng.
as §1

B1: DKK1: Purified Dickkopf-1 protein (R&D System), specific inhibitor of the wnt pathway binding LRP5/6; mouse protein in mice, human in HUVEC (protein, UniProt O54908 32-272; O54908 32-272, looked up)
Dickkopf-related protein 1 1: TLNSVLINSNAIKNLPPPLGGAGGQPGSAVSVAPGVLYEGGNKYQTLDNYQPYPCAEDEECGSDEYCSSPSRGAAGVGGVQICLACRKRRKRCMRHAMCCPGNYCKNGICMPSDHSHFPRGEIEESIIENLGNDHNAAAGDGYPRRTTLTSKIYHTKGQEGSVCLRSSDCAAGLCCARHFWSKICKPVLKEGQVCTKHKRKGSHGLEIFQRCYCGEGLACRIQKDHHQASNSSRLHTCQRH
Dickkopf-related protein 1 2: TLNSVLINSNAIKNLPPPLGGAGGQPGSAVSVAPGVLYEGGNKYQTLDNYQPYPCAEDEECGSDEYCSSPSRGAAGVGGVQICLACRKRRKRCMRHAMCCPGNYCKNGICMPSDHSHFPRGEIEESIIENLGNDHNAAAGDGYPRRTTLTSKIYHTKGQEGSVCLRSSDCAAGLCCARHFWSKICKPVLKEGQVCTKHKRKGSHGLEIFQRCYCGEGLACRIQKDHHQASNSSRLHTCQRH
modifications: mouse protein in mice, human in HUVEC
- VEGF over-expression in the retina (OIR rats [1]): significantly blocked VEGF over-expression
- nuclear translocation and expression levels of HIF-1α in the retina (OIR rats [2]; 3 μg intravitreal at P15, sections at P18, vs BSA): decreased
- neovascular endothelial cells (EC) in the vitreous space (pre-retinal NV) (OIR rats [2]; 3 μg intravitreal at P15, sections at P18, vs BSA contralateral eye): significantly fewer
- retinal vascular permeability (STZ-diabetic BN rats): significantly reduced retinal vascular permeability
- ICAM-1 over-expression in the retina (STZ-diabetic rats): inhibited the ICAM-1 over-expression in a dose-dependent manner
